As usually defined, the Kd is the free concentration of one partner at which half of the binding sites on the other are occupied at equilibrium, for simple one-to-one binding. Read a low Kd as higher affinity.

The target of experiment [1] is T1, HCoV-HKU1 prefusion-stabilized spike (S) protein / S ectodomain trimer (human coronavirus HKU1, UniProt Q5MQD0 13-1300).
T1 sequence: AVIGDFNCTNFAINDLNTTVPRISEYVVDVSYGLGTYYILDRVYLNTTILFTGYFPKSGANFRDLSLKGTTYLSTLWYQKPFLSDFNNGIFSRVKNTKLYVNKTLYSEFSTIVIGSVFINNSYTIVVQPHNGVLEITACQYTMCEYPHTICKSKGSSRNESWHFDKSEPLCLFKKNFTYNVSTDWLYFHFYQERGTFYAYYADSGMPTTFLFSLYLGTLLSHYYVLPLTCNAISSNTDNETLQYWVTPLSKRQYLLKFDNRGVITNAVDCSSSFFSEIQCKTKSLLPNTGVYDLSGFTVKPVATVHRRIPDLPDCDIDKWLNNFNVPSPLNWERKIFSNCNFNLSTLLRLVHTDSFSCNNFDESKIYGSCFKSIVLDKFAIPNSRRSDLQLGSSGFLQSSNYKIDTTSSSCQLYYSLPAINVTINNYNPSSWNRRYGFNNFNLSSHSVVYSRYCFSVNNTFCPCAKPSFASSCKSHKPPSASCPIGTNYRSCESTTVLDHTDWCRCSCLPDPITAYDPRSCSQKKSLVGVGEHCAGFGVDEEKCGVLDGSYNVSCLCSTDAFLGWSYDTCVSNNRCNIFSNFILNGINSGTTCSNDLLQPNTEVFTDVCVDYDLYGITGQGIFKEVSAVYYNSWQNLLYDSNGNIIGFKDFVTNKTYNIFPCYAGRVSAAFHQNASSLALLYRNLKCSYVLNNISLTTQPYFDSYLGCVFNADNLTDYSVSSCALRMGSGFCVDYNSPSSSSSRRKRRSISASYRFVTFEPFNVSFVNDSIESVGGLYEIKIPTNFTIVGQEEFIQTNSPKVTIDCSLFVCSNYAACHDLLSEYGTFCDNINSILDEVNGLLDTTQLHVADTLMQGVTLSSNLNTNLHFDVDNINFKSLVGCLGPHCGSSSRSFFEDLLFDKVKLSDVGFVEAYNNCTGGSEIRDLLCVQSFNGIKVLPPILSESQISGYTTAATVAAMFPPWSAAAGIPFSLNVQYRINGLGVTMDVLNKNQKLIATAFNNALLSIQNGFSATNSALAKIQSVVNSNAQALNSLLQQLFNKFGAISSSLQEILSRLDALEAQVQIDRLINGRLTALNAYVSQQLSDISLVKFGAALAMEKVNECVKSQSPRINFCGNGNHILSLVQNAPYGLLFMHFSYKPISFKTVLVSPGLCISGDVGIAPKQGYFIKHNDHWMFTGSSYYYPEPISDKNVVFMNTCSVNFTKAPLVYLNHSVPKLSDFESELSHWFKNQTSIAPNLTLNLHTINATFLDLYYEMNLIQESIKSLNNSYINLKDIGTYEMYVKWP

For experiment [2], the target named is T2, spike protein of alphacoronavirus NL63-CoV (HCoV-NL63, UniProt Q6Q1S2 16-1291).
T2 sequence: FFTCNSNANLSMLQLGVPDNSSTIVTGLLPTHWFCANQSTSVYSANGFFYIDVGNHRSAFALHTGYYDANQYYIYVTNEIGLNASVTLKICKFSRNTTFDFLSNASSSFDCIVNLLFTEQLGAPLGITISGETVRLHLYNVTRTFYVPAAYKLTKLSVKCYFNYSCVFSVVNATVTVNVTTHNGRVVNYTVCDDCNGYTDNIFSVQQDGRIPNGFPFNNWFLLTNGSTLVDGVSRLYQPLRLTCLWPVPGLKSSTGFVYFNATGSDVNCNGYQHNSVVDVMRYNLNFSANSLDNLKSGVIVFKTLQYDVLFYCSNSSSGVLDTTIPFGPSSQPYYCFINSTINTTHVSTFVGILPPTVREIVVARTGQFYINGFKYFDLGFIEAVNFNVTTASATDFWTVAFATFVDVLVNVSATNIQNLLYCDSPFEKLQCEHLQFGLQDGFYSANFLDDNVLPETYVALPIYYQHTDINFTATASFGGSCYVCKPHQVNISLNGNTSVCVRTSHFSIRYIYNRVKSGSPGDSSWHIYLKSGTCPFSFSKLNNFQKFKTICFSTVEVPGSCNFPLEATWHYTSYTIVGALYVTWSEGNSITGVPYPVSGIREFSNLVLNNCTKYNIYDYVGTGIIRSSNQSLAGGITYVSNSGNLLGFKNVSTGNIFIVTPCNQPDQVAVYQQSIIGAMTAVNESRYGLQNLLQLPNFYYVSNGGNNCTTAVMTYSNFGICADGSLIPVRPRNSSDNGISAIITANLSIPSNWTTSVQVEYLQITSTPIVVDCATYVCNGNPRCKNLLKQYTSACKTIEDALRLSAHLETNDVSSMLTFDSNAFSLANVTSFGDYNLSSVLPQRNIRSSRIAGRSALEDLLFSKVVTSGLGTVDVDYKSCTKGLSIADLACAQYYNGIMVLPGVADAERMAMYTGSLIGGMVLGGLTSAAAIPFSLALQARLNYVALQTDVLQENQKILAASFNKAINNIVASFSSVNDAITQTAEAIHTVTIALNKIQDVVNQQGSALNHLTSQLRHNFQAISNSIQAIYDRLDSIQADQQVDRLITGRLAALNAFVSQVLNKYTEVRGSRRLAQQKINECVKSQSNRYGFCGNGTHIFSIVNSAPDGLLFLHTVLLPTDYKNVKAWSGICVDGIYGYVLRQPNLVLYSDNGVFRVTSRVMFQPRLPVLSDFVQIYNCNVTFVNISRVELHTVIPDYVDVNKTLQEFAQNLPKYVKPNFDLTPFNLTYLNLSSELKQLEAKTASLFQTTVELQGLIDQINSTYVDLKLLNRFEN
Briefly: ELISA on alphacoronavirus spike proteins (Fig 37).

B1: antibody S2P6 (antibody 420 1 1), human monoclonal antibody expressed as recombinant human IgG1 (antibody, V domains shown)
VH: EVQLVQSGAEVKKPGASVKVSCKASGYTFTSQYMHWVRQAPGQGLEWIGIINPSGVHTSYAQKFQGRVTLTRDTSTSTLYMELSSLRSEDTAVYYCARGSPKGAFDYWGQGTLVTVSS
VL: not shown
In turn, B1 returned a Kd in experiment [1] of 2.44 nM. Moreover, the binding result in experiment [2] is recorded as “no binding”.

The record behind these values is JP2023550785A (dated 2023).
